To fix the notation:
B1: Histone-lysine N-methyltransferase SETD1B (Homo sapiens), Q9UPS6-2 (parent)
chain: MENSHPPHHHHQQPPPQPGPSGERRNHHWRSYKLMIDPALKKGHHKLYRYDGQHFSLAMSSNRPVEIVEDPRVVGIWTKNKELELSVPKFKIDEFYVGPVPPKQVTFAKLNDNIRENFLRDMCKKYGEVEEVEILYNPKTKKHLGIAKVVFATVRGAKDAVQHLHSTSVMGNIIHVELDTKGETRMRFYELLVTGRYTPQTLPVGELDAVSPIVNETLQLSDALKRLKDGGLSAGCGSGSSSVTPNSGGTPFSQDTAYSSCRLDTPNSYGQGTPLTPRLGTPFSQDSSYSSRQPTPSYLFSQDPAVTFKARRHESKFTDAYNRRHEHHYVHNSPAVTAVAGATAAFRGSSDLPFGAVGGTGGSSGPPFKAQPQDSATFAHTPPPAQATPAPGFKSAFSPYQTPVAHFPPPPEEPTATAAFGARDSGEFRRAPAPPPLPPAEPLAKEKPGTPPGPPPPDTNSMELGGRPTFGWSPEPCDSPGTPTLESSPAGPEKPHDSLDSRIEMLLKEQRTKLLFLREPDSDTELQMEGSPISSSSSQLSPLAPFGTNSQPGFRGPTPPSSRPSSTGLEDISPTPLPDSDEDEELDLGLGPRPPPEPGPPDPAGLLSQTAEVALDLVGDRTPTSEKMDEGQQSSGEDMEISDDEMPSAPITSADCPKPMVVTPGAAAVAAPSVLAPTLPLPPPPGFPPLPPPPPPPPPQPGFPMPPPLPPPPPPPPPAHPAVTVPPPPLPAPPGVPPPPILPPLPPFPPGLFPVMQVDMSHVLGGQWGGMPMSFQMQTQVLSRLMTGQGACPYPPFMAAAAAAASAGLQFVNLPPYRGPFSLSNSGPGRGQHWPPLPKFDPSVPPPGYMPRQEDPHKATVDGVLLVVLKELKAIMKRDLNRKMVEVVAFRAFDEWWDKKERMAKASLTPVKSGEHKDEDRPKPKDRIASCLLESWGKGEGLGYEGLGLGIGLRGAIRLPSFKVKRKEPPDTTSSGDQKRLRPSTSVDEEDEESERERDRDMADTPCELAKRDPKGVGVRRRPARPLELDSGGEEDEKESLSEEQESTEEEEEAEEEEEEEDDDDDDSDDRDESENDDEDTALSEASEKDEGDSDEEETVSIVTSKAEATSSSESSESSEFESSSESSPSSSEDEEEVVAREEEEEEEEEEMVAEESMASAGPEDFEQDGEEAALAPGAPAVDSLGMEEEVDIETEAVAPEERPSMLDEPPLPVGVEEPADSREPPEEPGLSQEGAMLLSPEPPAKEVEARPPLSPERAPEHDLEVEPEPPMMLPLPLQPPLPPPRPPRPPSPPPEPETTDASHPSVPPEPLAEDHPPHTPGLCGSLAKSQSTETVPATPGGEPPLSGGSSGLSLSSPQVPGSPFSYPAPSPSLSSGGLPRTPGRDFSFTPTFSEPSGPLLLPVCPLPTGRRDERSGPLASPVLLETGLPLPLPLPLPLPLALPAVLRAQARAPTPLPPLLPAPLASCPPPMKRKPGRPRRSPPSMLSLDGPLVRPPAGAALGRELLLLPGQPQTPVFPSTHDPRTVTLDFRNAGIPAPPPPLPPQPPPPPPPPPVEPTKLPFKELDNQWPSEAIPPGPRGRDEVTEEYMELAKSRGPWRRPPKKRHEDLVPPAGSPELSPPQPLFRPRSEFEEMTILYDIWNGGIDEEDIRFLCVTYERLLQQDNGMDWLNDTLWVYHPSTSLSSAKKKKRDDGIREHVTGCARSEGFYTIDKKDKLRYLNSSRASTDEPPADTQGMSIPAQPHASTRAGSERRSEQRRLLSSFTGSCDSDLLKFNQLKFRKKKLKFCKSHIHDWGLFAMEPIAADEMVIEYVGQNIRQVIADMREKRYEDEGIGSSYMFRVDHDTIIDATKCGNFARFINHSCNPNCYAKVITVESQKKIVIYSKQHINVNEEITYDYKFPIEDVKIPCLCGSENCRGTLN

Experimental findings from IntAct's records for PubMed 26886794 are described below.

Variants of B1 are the subject of the test. As to conditions: with ASH2L.
R1819A: the “effect of a mutation on the interaction” value is on record as “disrupting interaction strength”.
